Assay results: paper PMC3605045, “GH1-family 6-P-β-glucosidases from human microbiome lactic acid bacteria” (Acta Crystallographica Section D: Biological Crystallography, 2013)

Substrate: O=P(O)(O)OC[C@H]1O[C@@H](Oc2ccccc2CO)[C@H](O)[C@@H](O)[C@@H]1O
Test: purified protein
Assay type: biochemical, Streptococcus mutans
Conditions: 0.1 M HEPES-NaOH pH 8.0, 2 mM NADP+, 298 K, SeMet-labelled enzyme 0.02 µM, substrate 10-2000 µM, 25.0 °C

B1: SmBgl (Streptococcus mutans UA159) (protein)
chain: MSKLPENFLWGGAVAAHQLEGGWQEGGKGISVADVMTAGRHGVAREITAGVLEGKYYPNHEAIDFYHHYKEDVKLFAEMGFKCFRTSIAWTRIFPKGDEAEPNEAGLQFYDDLFDECLKYGIEPVVTLSHFELPYHLVTEYGGFTNRKVIDFFVHFAEVCFRRYKDKVKYWMTFNEINNQANYQEDFAPFTNSGIVYKEGDDREAIMYQAAHYELVASARAVKIGHAINPNLNIGCMVAMCPIYPATCNPKDILMAQKAMQKRYYFADVHVHGFYPEHIFKYWERKAIKVDFTERDKKDLFEGTVDYIGFSYYMSFVIDAHRENNPYYDYLETEDLVKNPYVKASDWDWQIDPQGLRYALNWFTDMYHLPLFIVENGFGAIDQVEADGMVHDDYRIDYLGAHIKEMIKAVDEDGVELMGYTPWGCIDLVSAGTGEMRKRYGFIYVDKDDEGKGTLKRSPKLSFNWYKEVIASNGDDI
notes: full length, 477 residues, ~55 kDa, homodimer; His6 cut by TEV, SNA- left at N-terminus; E. coli BL21 (DE3) Magic, pMCSG7; SeMet-labelled protein in kinetic assays
Km: 1020 ± 70 µM
